We go through three molecules from paper PMC5458078, “Global mapping of CARM1 substrates defines enzyme specificity and substrate recognition” (Nature Communications, 2017).

For one test, the system named is HEK293T cells. Nature of the test: Western blot of FLAG-tagged TET2 with ADMA antibodies, wild type vs CARM1 KO. The class given is cell-based. As to the method:
TET2, methylcytosine dioxygenase with a prominent role in DNA demethylation frequently mutated in various human cancers, was identified among novel CARM1 substrates. To assure its correct identification, we probed FLAG-tagged TET2 with ADMA antibody in wild type and CARM1 KO HEK293T cells (Fig. 2c).
(§1) Cells were collected by trypsinization, washed with Dulbecco's phosphate buffer saline (Life Technologies, Carlsbad, CA) and lysed by suspension in lysis buffer (50 mM Tris-HCl pH 8.0, 150 mM NaCl, 10% glycerol, 0.5% Triton X-100 and 1 × protease inhibitor cocktail (Sigma-Aldrich)). After brief sonication followed by centrifugation, total protein was quantified using the BioRad Protein Assay (BioRad, Hercules, CA), and 20 μg protein was resolved by SDS–PAGE. Proteins were transferred to a nitrocellulose membrane for 1.5 h at 350 mA. Membranes were blocked with 5% nonfat milk at room temperature for 1 h and incubated overnight with diluted primary antibody at 4 °C. Membranes were then washed and incubated with HRP-conjugated secondary antibody for 1 h at room temperature. Signal was visualized by enhanced chemiluminescence reagents (Thermo Scientific, Rockford, IL) and X-ray film exposure followed by scanning and digitalization. Me-PABP1 and PABP1 antibodies, me-BAF155 antibody[20] and me-MED12 antibody[30] were generated previously in the Xu lab. […]

In test [1] the test system is 6xHis-tagged CARM1 EVH1 domain (CARM1 28-140). Nature of the test: FP assay with fluorescein-labelled BAF155 peptide and 6xHis-CARM1 28-140. The test is classed as binding. To be noted: fluorescein-labelled BAF155 peptide 5 nM; protein titrated; 50 mM HEPES pH 7.5, 150 mM NaCl, 0.005% NP-40, 0.5 mM EDTA; 2 h, room temperature; triplicates; ex 485/20 nm, em 528/20 nm. As for the experimental part:
The DNA fragment encoding CARM1 residues 28–140 was cloned into pET21a expression vector (Novagen, Madison, WI). DNA construct was transformed into BL21(DE3)pLysS E. coli expression strain. Luria–Bertani media (1–2L) was seeded with 10 ml of overnight starter culture and grown at 37 °C until OD600 nm reached 0.6. Protein expression was then induced with the addition of 0.2 mM isopropyl β-D-1-thiogalactopranoside for 4 h at ambient temperature. Bacterial pellets were then lysed by sonication on ice in lysis buffer (50 mM Tris, pH 7.5, 150 mM NaCl, 0.05% NP-40, supplemented with 1 × protease inhibitor cocktail before use) with 70% amplitude, 30 s on, 30 s off, 10 cycles. […] Protein concentration was then determined using Bradford assay and protein purity was assessed by SDS–PAGE and Coomassie Blue staining.
Fluorescein-labelled BAF155 peptide (constant final concentration at 5 nM) was mixed with titrations of purified recombinant proteins or BSA control in binding buffer (50 mM HEPES, pH 7.5, 150 mM NaCl, 0.005% NP-40, 0.5 mM EDTA) and incubated in dark at room temperature for 2 h. […] Polarization measurements were then corrected for background contributions to the measured intensity by subtracting the parallel and perpendicular intensity readings, from the blank buffer-only wells, from the intensity readings for each data point. […]

In test [2] the test system is recombinant full-length BAF155 protein. Nature of the test: In vitro methylation of full-length FLAG-BAF155 by recombinant CARM1 proteins, autoradiography. The class given is biochemical. As to conditions: 3H-SAM, 50 mM Tris-HCl pH 8.0, 100 mM NaCl, 0.5 mM EDTA, 1–4 h, 30 °C. As to the method:
The FL and N-terminal domain-deleted version of human CARM1 cDNAs, and other PRMT FL cDNAs were cloned into pFN21K Halo Tag CMV Flexi mammalian expression vector (Promega, Madison, WI) using the unique Sgfl and Pmel site[55]. To express the protein, DNA constructs were transiently transfected into HEK293T CARM1 KO cells in 15 cm dishes using transIT-LT1 reagent (Mirus Bio, Madison, WI) according to the manufacturer's protocol. Proteins were allowed to express for 48 h. Cell pellets were then collected and lysed in lysis buffer (50 mM HEPES, pH 7.5, 150 mM NaCl, 0.005% NP-40, 0.5 mM EDTA, supplemented with 1 × protease inhibitor cocktail before use). The cells were sonicated on ice using a Branson Sonifier 450 with a microtip at 35% amplitude (10 s on, 30 s off, 6 cycles). […] The resin was centrifuged at 3,000 r.p.m. for 5 min, and the supernatant containing the cleaved protein was collected and protein concentration was determined using the Bradford assay (Thermo Scientific, Rockford, IL). Protein purity was assessed by running SDS–PAGE and Coomassie Blue staining.
CMX-Flag-BAF155 construct was generated by subcloning a PCR-amplified Flag-BAF155 fragment into the CMX-expression vector. […] Protein concentration was determined using Bradford assay and protein purity was assessed by SDS–PAGE and Coomassie Blue staining. […]

Test [3] concerns HEK293T CARM1 KO cells. Nature of the test: Rescue of endogenous BAF155 and MED12 methylation, transient transfection, western blot. The class given is cell-based. As to conditions: transient expression in HEK293T CARM1 KO cells. As for the experimental part:
(§2) Next, we transiently transfected FL and the two aforementioned CARM1 truncations in HEK293T CARM1 KO cells and measured substrate methylation by western blotting with ADMA antibodies.
Cells were collected by trypsinization, washed with Dulbecco's phosphate buffer saline (Life Technologies, Carlsbad, CA) and lysed by suspension in lysis buffer (50 mM Tris-HCl pH 8.0, 150 mM NaCl, 10% glycerol, 0.5% Triton X-100 and 1 × protease inhibitor cocktail (Sigma-Aldrich)). After brief sonication followed by centrifugation, total protein was quantified using the BioRad Protein Assay (BioRad, Hercules, CA), and 20 μg protein was resolved by SDS–PAGE. Proteins were transferred to a nitrocellulose membrane for 1.5 h at 350 mA. Membranes were blocked with 5% nonfat milk at room temperature for 1 h and incubated overnight with diluted primary antibody at 4 °C. Membranes were then washed and incubated with HRP-conjugated secondary antibody for 1 h at room temperature. Signal was visualized by enhanced chemiluminescence reagents (Thermo Scientific, Rockford, IL) and X-ray film exposure followed by scanning and digitalization. Me-PABP1 and PABP1 antibodies, me-BAF155 antibody[20] and me-MED12 antibody[30] were generated previously in the Xu lab. FLAG antibody (catalogue #F7425) was purchased from Sigma and used at a dilution of 1:5,000; BAF155 antibody (sc-10756) was purchased from Santa Cruz and used at a dilution of 1:1,000; MED12 antibody (ab70842) was purchased from Abcam (Cambridge, MA) and used at 1:1,000 dilution.

Test [4] has as its system BAF155, MED12, PABP1, NCOA3 and TET2. Nature of the test: Co-immunoprecipitation of BAF155, MED12, PABP1, NCOA3 and TET2 with FLAG-tagged CARM1, western blot. The class given is cell-based. As to conditions: FLAG-tagged construct transiently transfected in HEK293T CARM1 KO cells; anti-FLAG IP.
Source text: The structure of the N-terminal domain of CARM1 (residues 28–140) resembles those of the EVH1 domains, a subfamily of PH domains that bind proline-rich sequences. With our discovery that CARM1 substrates contain proline-rich motifs, we posited that the protein's N-terminal domain may be required for substrate recognition. To test this hypothesis, we generated three CARM1 constructs: one full-length (CARM1 FL) and two N-terminal truncations CARM1 28–608 and CARM1 140–608 (Fig. 3a). […] We transiently transfected the three FLAG-tagged CARM1 fusion constructs in HEK293T CARM1 KO cells. CARM1 was immunoprecipitated from all three cell lines using anti-FLAG M2 resin, and four known CARM1 substrates/interactors (that is, BAF155 (ref. [20]), MED12 (ref. [30]), PABP1 (ref. [36]) and NCOA3 (ref. [19])) and newly identified TET2 were detected by western blotting. […] To globally assess the magnitude of reduction in CARM1–substrate interactions induced by the loss of the EVH1 domain, we visualized overall protein changes in CARM1 immunoprecipitates by western blotting using the ADMA antibody (Fig. 3c).
as §1, with “digitalization.” for “digitalization. Me-PABP1 and PABP1 antibodies, me-BAF155 antibody[20] and me-MED12 antibody[30] were generated previously in the Xu lab.”

Test [5] relates to HEK293T CARM1 KO cells. Nature of the test: Total ADMA levels after transient transfection, western blot. As to conditions: transient expression in HEK293T CARM1 KO cells. The class given is cell-based. As for the experimental part:
as §2, §1

In the case of “TET2: FLAG-tagged TET2, methylcytosine dioxygenase”, the “ADMA modification of TET2 in the absence of CARM1” value in the test with HEK293T cells was “complete disappearance of ADMA modification on TET2”.
“bovine serum albumin (BSA): bovine serum albumin control”: in test [1], the Fluorescence polarization change result is recorded as “no change in signal”.

B1: CARM1 28–608: CARM1 28–608 lacks the first, unstructured 28 residues (protein)
chain: TVSVFPGARLLTIGDANGEIQRHAEQQALRLEVRAGPDSAGIALYSHEDVCVFKCSVSRETECSRVGKQSFIITLGCNSVLIQFATPNDFCSFYNILKTCRGHTLERSVFSERTEESSAVQYFQFYGYLSQQQNMMQDYVRTGTYQRAILQNHTDFKDKIVLDVGCGSGILSFFAAQAGARKIYAVEASTMAQHAEVLVKSNNLTDRIVVIPGKVEEVSLPEQVDIIISEPMGYMLFNERMLESYLHAKKYLKPSGNMFPTIGDVHLAPFTDEQLYMEQFTKANFWYQPSFHGVDLSALRGAAVDEYFRQPVVDTFDIRILMAKSVKYTVNFLEAKEGDLHRIEIPFKFHMLHSGLVHGLAFWFDVAFIGSIMTVWLSTAPTEPLTHWYQVRCLFQSPLFAKAGDTLSGTCLLIANKRQSYDISIVAQVDQTGSKSSNLLDLKNPFFRYTGTTPSPPPGSHYTSPSENMWNTGSTYNLSSGMAVAGMPTAYDLSSVIASGSSVGHNNLIPLANTGIVNHTHSRMGSIMSTGIVQGSSGAQGSGGGSTSAHYAVNSQFTMGGPAISMASPMSIPTNTMHYGS
modifications: left off: FLAG, end not stated, kept
notes: CARM1 28–608 lacks the first, unstructured 28 residues
As to B1, the “Methylation of full-length BAF155” value in test [2] is on record as “methylated recombinant full-length BAF155 protein”. In addition, in the test on HEK293T CARM1 KO cells [3], the “Methylation of endogenous BAF155 and MED12” value is “methylation of endogenous BAF155 and MED12 was restored”. Also, the “Co-precipitation of BAF155, MED12, PABP1, NCOA3 and TET2” value in test [4] is reported as “all five proteins were co-precipitated”. For the same molecule, the “Total levels of ADMA modification” value in the test with HEK293T CARM1 KO cells [5] was “recovered to the level of parental cells”.
